For test [1], the target named is T1, HLA-DR7 (HLA-DRB1*07:01) (human).
T1 construct: mature; purified from homozygous EBV-transformed lymphoblastoid cells with antibody L243
As to the kind of experiment: competition ELISA vs biotin-YKL. In general terms: An ELISA detects its analyte on a solid surface through an enzyme-linked reagent.

Test [2] has as its target T2, HLA-DR13 (HLA-DRB1*13:01) (human).
T2 construct: mature; purified from homozygous EBV-transformed lymphoblastoid cells with antibody L243
As to the kind of experiment: competition ELISA vs biotin-B1 21-36.

The target in test [3] is T3, HLA-DR15 (HLA-DRB1*15:01) (human).
T3 construct: mature; purified from homozygous EBV-transformed lymphoblastoid cells with antibody L243
As to the kind of experiment: competition ELISA vs biotin-A3 152-166.

Test [4] has as its target T4, HLA-DR1 (HLA-DRB1*01:01) (human).
T4 construct: mature; class II HLA molecule purified from homozygous EBV-transformed lymphoblastoid cells with antibody L243
Put plainly: competition ELISA vs biotin-HA 306-318.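 Note: HLA and competitor incubated 24 to 72 h, maximal signal taken from wells lacking competitor, background from wells lacking HLA molecule.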

Test [5] has as its target T5, HLA-DRB5 (HLA-DRB5*01:01) (human).
T5 construct: mature; purified from homozygous EBV-transformed lymphoblastoid cells with antibody L243
Put plainly: competition ELISA vs biotin-HA 306-318.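 Note: HLA and competitor incubated 24 to 72 h, maximal signal taken from wells lacking competitor, background from wells lacking HLA molecule.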

In test [6] the target is T6, HLA-DR11 (HLA-DRB1*11:01) (human).
T6 construct: mature; purified from homozygous EBV-transformed lymphoblastoid cells with antibody L243
Put plainly: competition ELISA vs biotin-HA 306-318.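 Note: HLA and competitor incubated 24 to 72 h, maximal signal taken from wells lacking competitor, background from wells lacking HLA molecule.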

In test [7] the target is T7, HLA-DR3 (HLA-DRB1*03:01) (human).
T7 construct: mature; purified from homozygous EBV-transformed lymphoblastoid cells with antibody L243
As to the kind of experiment: competition ELISA vs biotin-MT 2-16.

In test [8] the target is T8, HLA-DR4 (HLA-DRB1*04:01) (human).
T8 construct: mature; purified from homozygous EBV-transformed lymphoblastoid cells with antibody L243
As to the kind of experiment: competition ELISA vs biotin-HA 306-318.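 Note: HLA and competitor incubated 24 to 72 h, maximal signal taken from wells lacking competitor, background from wells lacking HLA molecule.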

Test [9] concerns the target T1, HLA-DR7 (HLA-DRB1*07:01). Put plainly: competition ELISA vs biotin-YKL. The source holds these as a separate data set.
Test [10] deals with T9, HLA-DRB4 (HLA-DRB4*01:01) (human).
T9 construct: mature; purified from homozygous EBV-transformed lymphoblastoid cells with antibody L243
Put plainly: competition ELISA vs biotin-E2/E168.

Test [11] concerns the target T7, HLA-DR3 (HLA-DRB1*03:01). Put plainly: competition ELISA vs biotin-MT 2-16. This is another data set of the same source.
Test [12] addresses T3, HLA-DR15 (HLA-DRB1*15:01). As to the kind of experiment: competition ELISA vs biotin-A3 152-166. The source holds these as a separate data set.
Test [13] deals with T4, HLA-DR1 (HLA-DRB1*01:01). Put plainly: competition ELISA vs biotin-HA 306-318. The source holds these as a separate data set.
For test [14], the target named is T5, HLA-DRB5 (HLA-DRB5*01:01). Put plainly: competition ELISA vs biotin-HA 306-318. This is another data set of the same source.
Test [15] deals with T8, HLA-DR4 (HLA-DRB1*04:01). As to the kind of experiment: competition ELISA vs biotin-HA 306-318. This is another data set of the same source.
Test [16] addresses T6, HLA-DR11 (HLA-DRB1*11:01). As to the kind of experiment: competition ELISA vs biotin-HA 306-318. This is another data set of the same source.
Test [17] deals with T10, HLA-DRB3 (HLA-DRB3*01:01) (human).
T10 construct: mature; purified from homozygous EBV-transformed lymphoblastoid cells with antibody L243
As to the kind of experiment: competition ELISA vs biotin-LOL 191-210.

Test [18] addresses T11, HLA-DP401 (HLA-DPB1*04:01) (human, UniProt P20036 29-222).
T11 construct: mature; purified from homozygous EBV-transformed lymphoblastoid cells with antibody B7/21
As to the kind of experiment: competition ELISA vs biotin-Oxy 271-287.

For test [19], the target named is T12, HLA-DP402 (HLA-DPB1*04:02) (human, UniProt P20036 29-222).
T12 construct: mature; purified from homozygous EBV-transformed lymphoblastoid cells with antibody B7/21
Put plainly: competition ELISA vs biotin-Oxy 271-287.

Test [20] concerns the target T1, HLA-DR7 (HLA-DRB1*07:01). As to the kind of experiment: competition ELISA vs biotin-YKL. This is another data set of the same source.
Test [21] concerns the target T3, HLA-DR15 (HLA-DRB1*15:01). Put plainly: competition ELISA vs biotin-A3 152-166. The source holds these as a separate data set.
Test [22] addresses T4, HLA-DR1 (HLA-DRB1*01:01). As to the kind of experiment: competition ELISA vs biotin-HA 306-318. This is another data set of the same source.
Test [23] concerns the target T12, HLA-DP402 (HLA-DPB1*04:02). As to the kind of experiment: competition ELISA vs biotin-Oxy 271-287. The source holds these as a separate data set.
Test [24] has as its target T5, HLA-DRB5 (HLA-DRB5*01:01). Put plainly: competition ELISA vs biotin-HA 306-318. This is another data set of the same source.
The target in test [25] is T8, HLA-DR4 (HLA-DRB1*04:01). Put plainly: competition ELISA vs biotin-HA 306-318. The source holds these as a separate data set.
For test [26], the target named is T6, HLA-DR11 (HLA-DRB1*11:01). As to the kind of experiment: competition ELISA vs biotin-HA 306-318. This is another data set of the same source.
In test [27] the target is T11, HLA-DP401 (HLA-DPB1*04:01). Put plainly: competition ELISA vs biotin-Oxy 271-287. The source holds these as a separate data set.

Like-named read-outs stand apart in the source and are kept apart here. No end group written: not given here.

In the case of VDVEQHTLAKYLMEL-NH2 [CCNB1 315-329], the relative affinity with HLA-DR7 (HLA-DRB1*07:01) [1] is 6; in test [2], 211; in test [3] it was 7; with HLA-DR1 (HLA-DRB1*01:01) [4], 2450; in [5] it was 224; in test [6] it was 632.

For the molecule LHFLRRASKIGEVDV-NH2 [CCNB1 303-317], the relative affinity with HLA-DR7 (HLA-DRB1*07:01) [1] was determined as 849; with HLA-DR3 (HLA-DRB1*03:01) [7] it was 3; in test [2], 1; in test [3], 17; with HLA-DR1 (HLA-DRB1*01:01) [4], 495; in test [5], 1330. The relative affinity came out at 1390 with HLA-DR4 (HLA-DRB1*04:01) [8] and 1 in test [6].

Consider RAILIDWLVQVQMKF-NH2 [CCNB1 202-216], for which the relative affinity turned out to be 9 in the test with HLA-DR7 (HLA-DRB1*07:01) [9]; 20 in test [10]; 1 with HLA-DR3 (HLA-DRB1*03:01) [11]; 4 in [12]; 1220 with HLA-DR1 (HLA-DRB1*01:01) [13]; 55 in test [14]. In addition, the relative affinity with HLA-DR4 (HLA-DRB1*04:01) [15] was 59; in [16], 400; in [17], 2; in test [18], 47; in [19] it was 14.

In the case of SQIAAGAFCLALKIL-NH2 [CCNB1 342-356], the relative affinity with HLA-DR7 (HLA-DRB1*07:01) [9] stood at 20; in [10], 57; in [12], 21; with HLA-DR1 (HLA-DRB1*01:01) [13] it was 46; in test [16] it was 3; in test [17], 239. The relative affinity in test [18] is 79; in test [19], 25.

For LQLVGVTAMFIASKY-NH2 [CCNB1 244-258], the relative affinity with HLA-DR7 (HLA-DRB1*07:01) [9] came out at 1; in test [10] it was 98; in the test with HLA-DR3 (HLA-DRB1*03:01) [11] it was 9; in [12], 1; with HLA-DR1 (HLA-DRB1*01:01) [13] it was 2; in [14] it was 1. Further, the relative affinity in [16] was 23; in test [17], 267; in [18] it was 77; in [19] it was 32.

As for HFPPSQIAAGAFCLA-NH2 [CCNB1 338-352], the relative affinity in the test with HLA-DR7 (HLA-DRB1*07:01) [20] came out at 1400; in test [21] it was 257; in the test with HLA-DR1 (HLA-DRB1*01:01) [22], 598; in test [23], 188.

On to FRLLQETMYMTVSII-NH2 [CCNB1 216-230], for which the relative affinity was determined as 0.5 with HLA-DR7 (HLA-DRB1*07:01) [9]; 22 in test [10]; 1 with HLA-DR3 (HLA-DRB1*03:01) [11]; 3 in test [12]; 7 with HLA-DR1 (HLA-DRB1*01:01) [13]; 50 in test [14]. Further, the relative affinity with HLA-DR4 (HLA-DRB1*04:01) [15] was 2; in test [16] it was 14; in [17], 11; in [18] it was 2; in test [19] it was 1.

Regarding LPVMQHLAKNVVMVN-NH2 [CCNB1 377-391], the relative affinity with HLA-DR7 (HLA-DRB1*07:01) [1] was 13; in test [2], 2; with HLA-DR1 (HLA-DRB1*01:01) [4], 894; in test [5], 4080; with HLA-DR4 (HLA-DRB1*04:01) [8], 373; in test [6] it was 3.

Take AKINMAGAKRVPTAP-NH2 [CCNB1 17-31]: the relative affinity came out at 3 in the test with HLA-DR7 (HLA-DRB1*07:01) [1]; 833 with HLA-DR3 (HLA-DRB1*03:01) [7]; 21 in [2]; 120 in test [3]; 5 with HLA-DR1 (HLA-DRB1*01:01) [4]; 11 in [5]. In addition, the relative affinity in [6] is 2.

Regarding SKYEEMYPPEIGDFA-NH2 [CCNB1 256-270], the relative affinity was determined as 61 with HLA-DR7 (HLA-DRB1*07:01) [20]; 153 in test [21]; 3 with HLA-DR1 (HLA-DRB1*01:01) [22]; 603 in test [24]; 456 in the test with HLA-DR4 (HLA-DRB1*04:01) [25]; 1370 in test [26]. The relative affinity in test [27] amounted to 894.

On to MALRVTRNSKINAEN-NH2 [CCNB1 1-15], for which the relative affinity with HLA-DR7 (HLA-DRB1*07:01) [1] is 2; in [2], 58; in [3], 5; with HLA-DR1 (HLA-DRB1*01:01) [4], 100; in test [5], 374; with HLA-DR4 (HLA-DRB1*04:01) [8] it was 46. The same molecule registered a relative affinity in test [6] of 22.

With PTLQHYLSYTEESLL-NH2 [CCNB1 363-377], the relative affinity in the test with HLA-DR7 (HLA-DRB1*07:01) [9] worked out at 1; in [10], 5; with HLA-DR3 (HLA-DRB1*03:01) [11] it was 1; in test [12], 1; with HLA-DR1 (HLA-DRB1*01:01) [13], 28; in [14] it was 24. In addition, the relative affinity in the test with HLA-DR4 (HLA-DRB1*04:01) [15] is 76; in [16], 45; in test [17], 11; in [18], 22; in [19] it was 50.

Take GNMRAILIDWLVQVQ-NH2 [CCNB1 199-213]: the relative affinity in the test with HLA-DR7 (HLA-DRB1*07:01) [9] came to 10; in test [10], 9; with HLA-DR3 (HLA-DRB1*03:01) [11], 1; in [12] it was 1; in the test with HLA-DR1 (HLA-DRB1*01:01) [13] it was 27; in test [14], 58. The relative affinity with HLA-DR4 (HLA-DRB1*04:01) [15] was 56; in test [16], 77; in test [17] it was 9; in [18] it was 36; in [19] it was 24.

Regarding MTVSIIDRFMQNNCV-NH2 [CCNB1 225-239], the relative affinity turned out to be 5 in the test with HLA-DR7 (HLA-DRB1*07:01) [9]; 6 in [10]; 1 in the test with HLA-DR3 (HLA-DRB1*03:01) [11]; 2 in test [12]; 24 with HLA-DR1 (HLA-DRB1*01:01) [13]; 79 in test [14]. For the same molecule, the relative affinity with HLA-DR4 (HLA-DRB1*04:01) [15] stood at 100; in [16], 31; in [17], 9; in test [18], 72; in test [19], 35.

The values are drawn from US20180086804A1 (COMMISSARIAT A L ENERGIE ATOMIQUE ET AUX ENERGIES …, published 2018).
